Assay results as given in patent US20080075733A1.

Molecular target: Fc receptor on THP-1 cells
Assay: cell-based or functional assay

Substance: human IgG1 (heat aggregated, coated on wells) (antibody)
- TNF-α secretion from THP-1 cells on coated wells (10 µg/well, heat aggregated): > 40 ng/well
